Test [1] addresses wild type CXCL12 (stromal cell-derived factor-1/SDF-1) (UniProt P48061 22-93). Nature of the test: NMR titration.
Test [2] deals with CXCL12_(1), constitutively monomeric CXCL12 variant (L55C/I58C) (UniProt P48061 22-93, L55C | I58C). Nature of the test: NMR titration.

B1: 9SDNsYTEE15, sTyr12 sulfopeptide of CXCR4 (peptide)
peptide: SDNYTEE
HELM: PEPTIDE1{[ac].S.D.N.[O=C([C@H](Cc1ccc(OS(=O)(=O)O)cc1)N[*:1])[*:2]].T.E.E.[am]}$$$$V2.0
SMILES: CC(=O)N[C@@H](CO)C(=O)N[C@@H](CC(=O)O)C(=O)N[C@@H](CC(N)=O)C(=O)N[C@@H](Cc1ccc(OS(=O)(=O)O)cc1)C(=O)N[C@H](C(=O)N[C@@H](CCC(=O)O)C(=O)N[C@@H](CCC(=O)O)C(N)=O)[C@@H](C)O
Turning to B1, the Kd (in general, the equilibrium constant for the complex coming apart) in test [1] was 1000 µM; in test [2], 1800 µM.

B2: 18SGDsYDSM24, sTyr21 sulfopeptide of CXCR4 (peptide)
peptide: SGDYDSM
HELM: PEPTIDE1{[ac].S.G.D.[O=C([C@H](Cc1ccc(OS(=O)(=O)O)cc1)N[*:1])[*:2]].D.S.M.[am]}$$$$V2.0
SMILES: CSCC[C@H](NC(=O)[C@H](CO)NC(=O)[C@H](CC(=O)O)NC(=O)[C@H](Cc1ccc(OS(=O)(=O)O)cc1)NC(=O)[C@H](CC(=O)O)NC(=O)CNC(=O)[C@H](CO)NC(C)=O)C(N)=O
On to B2, for which the Kd in test [1] was found to be 1800 µM; in test [2], 1600 µM.

B3: 4ISIsYTSD10, sTyr7 sulfopeptide of CXCR4 (peptide)
peptide: ISIYTSD
HELM: PEPTIDE1{[ac].I.S.I.[O=C([C@H](Cc1ccc(OS(=O)(=O)O)cc1)N[*:1])[*:2]].T.S.D.[am]}$$$$V2.0
SMILES: CC[C@H](C)[C@H](NC(C)=O)C(=O)N[C@@H](CO)C(=O)N[C@H](C(=O)N[C@@H](Cc1ccc(OS(=O)(=O)O)cc1)C(=O)N[C@H](C(=O)N[C@@H](CO)C(=O)N[C@@H](CC(=O)O)C(N)=O)[C@@H](C)O)[C@@H](C)CC
As for B3, the Kd came out at 4300 µM in test [1] and 6100 µM in test [2].
In the case of Ac-ISIYTSD-NH2 [4ISIYTSD10, unsulfated Tyr7 peptide of CXCR4], the Kd in test [1] amounted to 1900 µM; in test [2], 1100 µM.
The like results for Ac-SDNYTEE-NH2 [9SDNYTEE15, unsulfated Tyr12 peptide of CXCR4] were, in that order, 2100 µM and 2700 µM.
For Ac-SGDYDSM-NH2 [18SGDYDSM24, unsulfated Tyr21 peptide of CXCR4], the Kd in test [1] was 2700 µM; in test [2], 1500 µM.

(Values after article PMC3783652 (ACS chemical biology, 2013).)
